Holding throughout (assay type): cell-based
In assay [1] the test system is HIV-1JR-FL.
The subject of assay [2] is HIV-1JR-FL. This is another data set of the same source.
In assay [3] the test system is HIV-1JR-FL. The source holds these as a separate data set.

Substitutions are numbered along the chain they refer to. Names may count otherwise. No end group written: not given here.

Turning to “Ac-HD6: HD6 acetylated at the N-terminus (Ac-AFTCHCRRSCYSTEYSYGTCTVMGINHRFCCL; ends and bridges not checked; UniProt Q01524 69-100, looked up)”, in the assay on HIV-1JR-FL [1], the “Infectivity 10 μg/mL: relative percent of HIV infectivity compared to WT HD6” value is 58 ± 24% and the “Infectivity 30 μg/mL: relative percent of HIV infectivity compared to WT HD6” value was found to be 175 ± 43%. Further, in the assay on HIV-1JR-FL [2], the “Attachment 10 μg/mL: relative percent of HIV attachment compared to WT HD6” value was determined as 57 ± 14% and the “Attachment 30 μg/mL: relative percent of HIV attachment compared to WT HD6” value is reported as 87 ± 19%. The “Late RT production compared to WT HD6” value in the assay on HIV-1JR-FL [3] is recorded as “comparable”.

B1: R28A-HD5: HD5 mutant R28A, chemically synthesized; cationicity (peptide, UniProt Q01523 20-94, looked up, variant R28A)
Defensin alpha 5: ESLQERADEATTQKQSGEDNQDLAISFAGNGLSALRTSGSQARATCYCRTGRCATRESLSGVCEISGRLYALCCR
modifications: Defensin-5
As for B1, in the assay on HIV-1JR-FL [1], the “Infectivity 10 μg/mL: relative percent of HIV infectivity compared to WT HD5” value worked out at 66 ± 5%; the “Infectivity 30μg/mL: relative percent of HIV infectivity compared to WT HD5” value (“Infectivity 30μg/mL: relative percent” below) amounted to 52 ± 3%; the “Loss of HIV attachment-enhancing and infection-enhancing activities” value was “about 50%”. Moreover, in the assay with HIV-1JR-FL [2], the “Attachment 10 μg/mL: relative percent of HIV attachment compared to WT HD5” value is on record as 54 ± 17%, the “Attachment 30 μg/mL: relative percent of HIV attachment compared to WT HD5” value was determined as 59 ± 19% and the “Reduction of ability to promote HIV attachment compared to WT HD5” value was 41%.

B2: S15A-HD5: HD5 mutant S15A, chemically synthesized (peptide, UniProt Q01523 20-94, looked up, variant S15A)
Defensin alpha 5: B1 Defensin alpha 5 with S58A, A71R
modifications: Defensin-5
Consider B2, for which, in the assay on HIV-1JR-FL [1], the “Infectivity 10 μg/mL: relative percent of HIV infectivity compared to WT HD5” value turned out to be 166 ± 30% and the “Infectivity 30μg/mL: relative percent” value amounted to 81 ± 11%. For the same molecule, in the assay with HIV-1JR-FL [2], the “Attachment 10 μg/mL: relative percent of HIV attachment compared to WT HD5” value stood at 118± 9% and the “Attachment 30 μg/mL: relative percent of HIV attachment compared to WT HD5” value turned out to be 95 ± 16%.

B3: Y27A-HD5: HD5 mutant Y27A, chemically synthesized; hydrophobicity (peptide, UniProt Q01523 20-94, looked up, variant Y27A)
Defensin alpha 5: B1 Defensin alpha 5 with Y70A, A71R
modifications: Defensin-5
Regarding B3, in the assay on HIV-1JR-FL [1], the “Infectivity 10 μg/mL: relative percent of HIV infectivity compared to WT HD5” value came out at 28 ± 18% and the “Infectivity 30μg/mL: relative percent” value turned out to be 29 ± 9%. Further, in the assay on HIV-1JR-FL [2], the “Attachment 10 μg/mL: relative percent of HIV attachment compared to WT HD5” value stood at 19 ± 11% and the “Attachment 30 μg/mL: relative percent of HIV attachment compared to WT HD5” value came out at 18 ± 9%.

B4: Y4A-HD5: HD5 mutant Y4A, chemically synthesized; hydrophobicity (peptide, UniProt Q01523 20-94, looked up, variant Y4A)
Defensin alpha 5: B1 Defensin alpha 5 with Y47A, A71R
modifications: Defensin-5
As for B4, in the assay with HIV-1JR-FL [1], the “Infectivity 10 μg/mL: relative percent of HIV infectivity compared to WT HD5” value is 136 ± 42% and the “Infectivity 30μg/mL: relative percent” value worked out at 75 ± 14%. Also, in the assay on HIV-1JR-FL [2], the “Attachment 10 μg/mL: relative percent of HIV attachment compared to WT HD5” value came to 134 ± 26% and the “Attachment 30 μg/mL: relative percent of HIV attachment compared to WT HD5” value stood at 106 ± 3%.

B5: L16A-HD5: HD5 mutant L16A, chemically synthesized; hydrophobicity (peptide, UniProt Q01523 20-94, looked up, variant L16A)
Defensin alpha 5: B1 Defensin alpha 5 with L59A, A71R
modifications: Defensin-5
In the case of B5, in the assay on HIV-1JR-FL [1], the “Infectivity 10 μg/mL: relative percent of HIV infectivity compared to WT HD5” value worked out at 10 ± 3% and the “Infectivity 30μg/mL: relative percent” value was 30 ± 3%. In the assay on HIV-1JR-FL [2], the “Attachment 10 μg/mL: relative percent of HIV attachment compared to WT HD5” value was 17 ± 5% and the “Attachment 30 μg/mL: relative percent of HIV attachment compared to WT HD5” value was 27 ± 7%.

B6: human α-defensin 5 (peptide, UniProt Q01523 20-94, looked up)
Defensin alpha 5: B1 Defensin alpha 5 with A71R
modifications: Defensin-5
As to B6, in the assay with HIV-1JR-FL [1], the “Infectivity 10 μg/mL: relative percent of HIV infectivity compared to WT HD5” value is on record as 100 ± 0% and the “Infectivity 30μg/mL: relative percent” value is 100 ± 0%. In the assay on HIV-1JR-FL [2], the “Attachment 10 μg/mL: relative percent of HIV attachment compared to WT HD5” value was 100 ± 0% and the “Attachment 30 μg/mL: relative percent of HIV attachment compared to WT HD5” value is reported as 100 ± 0%.
